We go through 1 protein from patent US8268575B2, “NAD biosynthesis systems” (Washington University, priority 2004, dated 2012).

Substrate in this data set: NC(=O)c1cccnc1
As to the kind of experiment: purified protein, by the assay type. Particulars: other: substrate of Nampt, 37° C., pH 7.5.

B1: purified recombinant mouse Nampt (Mus musculus) (protein)
chain: MNAAAEAEFNILLATDSYKVTHYKQYPPNTSKVYSYFECREKKTENSKVRKVKYEETVFYGLQYILNKYLKGKVVTKEKIQEAKEVYREHFQDDVFNERGWNYILEKYDGHLPIEVKAVPEGSVIPRGNVLFTVENTDPECYWLTNWIETILVQSWYPITVATNSREQKKILAKYLLETSGNLDGLEYKLHDFGYRGVSSQETAGIGASAHLVNFKGTDTVAGIALIKKYYGTKDPVPGYSVPAAEHSTITAWGKDHEKDAFEHIVTQFSSVPVSVVSDSYDIYNACEKIWGEDLRHLIVSRSTEAPLIIRPDSGNPLDTVLKVLDILGKKFPVTENSKGYKLLPPYLRVIQGDGVDINTLQEIVEGMKQKKWSIENVSFGSGGALLQKLTRDLLNCSFKCSYVVTNGLGVNVFKDPVADPNKRSKKGRLSLHRTPAGNFVTLEEGKGDLEEYGHDLLHTVFKNGKVTKSYSFDEVRKNAQLNIEQDVAPH
Take B1: the Km – broadly, the substrate concentration at which the rate is half of its maximum – was 0.92 µM.
